This is an account of results in PMC9482650, “Quantitative fragmentomics allow affinity mapping of interactomes” (Nature Communications, 2022).

Among the targets are HTRA2, O43464; GIPC2, Q8TF65; LIMK2, P53671; IL16_1, Q14005; PDZRN4_1, Q6ZMN7; PARD3_3, Q8TEW0; DLG4_1, P78352; LNX1_2, Q8TBB1; MAST1, Q9Y2H9; TJP1_2, Q07157; SCRIB_2, Q14160.
What all share (assay): holdup assay
Set-up in all cases: key: below the threshold = too weak to quantify, mostly under pKd 3.1 to 4
Details in all cases: plain residues with an end cap or a label only (N-terminal biotin on a linker: ttds)

A further experiment concerns the target T1, SHANK1, Q9Y566.
T1 sequence (Q9Y566 658-767, limits assumed, looked up): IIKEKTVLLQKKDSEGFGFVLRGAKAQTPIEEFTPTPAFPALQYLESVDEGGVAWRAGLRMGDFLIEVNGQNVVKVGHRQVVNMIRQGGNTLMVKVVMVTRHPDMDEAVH

For a further experiment, the target named is T2, DFNB31_2, Q9P202.
T2 sequence (Q9P202 274-371, limits assumed, looked up): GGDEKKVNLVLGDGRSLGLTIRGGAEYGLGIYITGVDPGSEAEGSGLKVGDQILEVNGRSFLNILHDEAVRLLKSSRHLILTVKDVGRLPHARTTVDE

Another experiment deals with T3, SNTA1, Q13424.
T3 sequence (Q13424 82-180, limits assumed, looked up): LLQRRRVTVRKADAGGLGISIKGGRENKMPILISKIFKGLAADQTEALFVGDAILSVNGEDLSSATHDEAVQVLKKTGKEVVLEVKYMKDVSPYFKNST

For the next experiment, the target named is T4, SIPA1L2, Q9P2F8.
T4 sequence (Q9P2F8 945-1036, limits assumed, looked up): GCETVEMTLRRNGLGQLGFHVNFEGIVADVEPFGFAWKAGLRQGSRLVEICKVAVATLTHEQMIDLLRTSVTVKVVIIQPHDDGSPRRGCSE

A further experiment deals with T5, SNTB1, Q13884.
T5 sequence (Q13884 107-205, limits assumed, looked up): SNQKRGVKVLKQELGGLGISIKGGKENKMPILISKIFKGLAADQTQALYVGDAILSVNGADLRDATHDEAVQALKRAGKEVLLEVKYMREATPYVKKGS

Another experiment has as its target T6, NHERF3_3, Q5T2W1.
T6 sequence (Q5T2W1 238-333, limits assumed, looked up): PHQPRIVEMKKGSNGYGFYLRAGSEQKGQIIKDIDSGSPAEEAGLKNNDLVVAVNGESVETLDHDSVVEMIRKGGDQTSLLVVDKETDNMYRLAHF

Another experiment concerns the target T7, CARD11, Q9BXL7.
T7 sequence (Q9BXL7 662-765, limits assumed, looked up): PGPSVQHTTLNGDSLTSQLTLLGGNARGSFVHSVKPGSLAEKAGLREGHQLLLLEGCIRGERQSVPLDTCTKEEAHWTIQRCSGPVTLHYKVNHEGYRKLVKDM

Another experiment has as its target T8, NHERF3_1, Q5T2W1.
T8 sequence (Q5T2W1 4-100, limits assumed, looked up): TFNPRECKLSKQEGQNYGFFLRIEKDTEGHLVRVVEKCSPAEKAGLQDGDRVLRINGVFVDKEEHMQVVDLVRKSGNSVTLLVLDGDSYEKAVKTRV

The next experiment addresses T9, TIAM2, Q8IVF5.
T9 sequence (Q8IVF5 885-986, limits assumed, looked up): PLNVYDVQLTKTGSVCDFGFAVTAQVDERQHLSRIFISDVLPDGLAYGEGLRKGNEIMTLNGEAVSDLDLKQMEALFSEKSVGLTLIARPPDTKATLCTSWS

For another experiment, the target named is T10, RAPGEF6, Q8TEU7.
T10 sequence (Q8TEU7 525-625, limits assumed, looked up): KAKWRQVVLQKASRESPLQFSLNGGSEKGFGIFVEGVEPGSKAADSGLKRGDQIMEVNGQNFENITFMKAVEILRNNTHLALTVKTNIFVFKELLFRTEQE

In another experiment the target is T11, DLG3_3, Q92796.
T11 sequence (Q92796 374-475, limits assumed, looked up): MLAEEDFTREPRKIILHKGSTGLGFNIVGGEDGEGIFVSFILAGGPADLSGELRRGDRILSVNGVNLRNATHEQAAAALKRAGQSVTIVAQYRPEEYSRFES

In another experiment the target is T12, DLG3_1, Q92796.
T12 sequence (Q92796 125-227, limits assumed, looked up): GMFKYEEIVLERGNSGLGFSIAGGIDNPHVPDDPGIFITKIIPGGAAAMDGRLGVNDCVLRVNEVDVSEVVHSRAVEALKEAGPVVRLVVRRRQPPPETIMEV

For the next experiment, the target named is T13, DLG3_2, Q92796.
T13 sequence (Q92796 221-321, limits assumed, looked up): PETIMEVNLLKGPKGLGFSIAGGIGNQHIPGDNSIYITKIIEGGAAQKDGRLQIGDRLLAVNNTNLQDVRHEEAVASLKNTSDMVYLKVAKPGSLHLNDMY

DLG4_1, P78352, sequence (P78352 62-152): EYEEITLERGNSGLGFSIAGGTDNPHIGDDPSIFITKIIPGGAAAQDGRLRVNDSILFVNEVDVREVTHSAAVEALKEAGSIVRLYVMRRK
LNX1_2, Q8TBB1, sequence (Q8TBB1 371-470): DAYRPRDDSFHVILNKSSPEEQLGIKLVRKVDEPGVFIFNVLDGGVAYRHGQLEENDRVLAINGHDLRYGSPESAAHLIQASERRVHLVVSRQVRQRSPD
PDZRN4_1, Q6ZMN7, sequence (Q6ZMN7 213-318): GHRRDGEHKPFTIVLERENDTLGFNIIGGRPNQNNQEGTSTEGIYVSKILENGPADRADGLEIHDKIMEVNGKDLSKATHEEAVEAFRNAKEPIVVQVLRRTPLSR
GIPC2, Q8TF65, sequence (Q8TF65 112-203): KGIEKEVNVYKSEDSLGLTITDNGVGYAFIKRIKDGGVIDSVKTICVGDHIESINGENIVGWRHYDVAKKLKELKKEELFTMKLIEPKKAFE
MAST1, Q9Y2H9, sequence (Q9Y2H9 962-1065): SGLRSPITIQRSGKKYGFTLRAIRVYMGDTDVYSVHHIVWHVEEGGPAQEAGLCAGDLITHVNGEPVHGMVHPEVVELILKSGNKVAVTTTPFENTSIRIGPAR
PARD3_3, Q8TEW0, sequence (Q8TEW0 582-685): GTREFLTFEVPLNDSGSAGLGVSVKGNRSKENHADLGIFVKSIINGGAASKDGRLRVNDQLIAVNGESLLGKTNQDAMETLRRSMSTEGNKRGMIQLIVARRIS
IL16_1, Q14005, sequence (Q14005 210-306): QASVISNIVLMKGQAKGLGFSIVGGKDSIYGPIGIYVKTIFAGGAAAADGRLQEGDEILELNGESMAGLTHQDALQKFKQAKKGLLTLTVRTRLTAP
TJP1_2, Q07157, sequence (Q07157 181-274): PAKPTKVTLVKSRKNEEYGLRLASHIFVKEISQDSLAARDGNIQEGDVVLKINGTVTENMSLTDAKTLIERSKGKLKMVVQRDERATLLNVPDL
LIMK2, P53671, sequence (P53671 143-248): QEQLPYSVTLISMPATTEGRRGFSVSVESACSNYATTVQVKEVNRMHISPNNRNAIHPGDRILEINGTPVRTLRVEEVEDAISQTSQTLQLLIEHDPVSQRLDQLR
HTRA2, O43464, sequence (O43464 355-458): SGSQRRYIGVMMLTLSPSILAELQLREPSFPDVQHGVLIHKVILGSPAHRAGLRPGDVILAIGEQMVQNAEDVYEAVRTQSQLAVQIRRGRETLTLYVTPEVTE
SCRIB_2, Q14160, sequence (Q14160 857-960): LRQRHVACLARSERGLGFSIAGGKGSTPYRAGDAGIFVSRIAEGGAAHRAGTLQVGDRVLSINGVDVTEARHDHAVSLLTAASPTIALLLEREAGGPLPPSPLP

Consider GRLLGLETNV [ARHGEF26, Q96DR7], for which the negative logarithm of the Kd (pKd) – broadly, −log10 of the Kd, conventionally taken in molar units – is “below the threshold” with SHANK1, Q9Y566; “below the threshold” with DFNB31_2, Q9P202; 4.7 in the experiment with SNTA1, Q13424; “below the threshold” with SIPA1L2, Q9P2F8; “below the threshold” with HTRA2, O43464; 4.79 in the experiment with SNTB1, Q13884. Further, the negative logarithm of the Kd (pKd) result with NHERF3_3, Q5T2W1 is reported as “below the threshold”; in the experiment with CARD11, Q9BXL7, “below the threshold”; with GIPC2, Q8TF65 it was “below the threshold”; in the experiment with NHERF3_1, Q5T2W1, “below the threshold”; in the experiment with TIAM2, Q8IVF5, “below the threshold”; with RAPGEF6, Q8TEU7 it was “below the threshold”. The pKd result with LIMK2, P53671 is “below the threshold”; with IL16_1, Q14005 it was 3.78; in the experiment with PDZRN4_1, Q6ZMN7 it was 3.48; in the experiment with PARD3_3, Q8TEW0, “below the threshold”; with DLG4_1, P78352, 4.68; with LNX1_2, Q8TBB1, “below the threshold”. For the same molecule, the pKd was 4.23 with DLG3_3, Q92796; 4.13 with DLG3_1, Q92796; 4.33 in the experiment with MAST1, Q9Y2H9; 4.97 with DLG3_2, Q92796; “below the threshold” with TJP1_2, Q07157; 4.29 in the experiment with SCRIB_2, Q14160.

Regarding QRPYRRESEI [KCNJ12, Q14500], the pKd entry with SHANK1, Q9Y566 is “below the threshold”; in the experiment with DFNB31_2, Q9P202, “below the threshold”; in the experiment with SNTA1, Q13424, 3.97; in the experiment with SIPA1L2, Q9P2F8, “below the threshold”; with HTRA2, O43464 it was “below the threshold”; with SNTB1, Q13884 it was 3.86. In addition, the pKd result was “below the threshold” with NHERF3_3, Q5T2W1; “below the threshold” with CARD11, Q9BXL7; “below the threshold” with GIPC2, Q8TF65; “below the threshold” in the experiment with NHERF3_1, Q5T2W1; “below the threshold” with TIAM2, Q8IVF5; “below the threshold” in the experiment with RAPGEF6, Q8TEU7. Moreover, the pKd entry with LIMK2, P53671 is “below the threshold”; with IL16_1, Q14005, “below the threshold”; with PDZRN4_1, Q6ZMN7, 4.18; in the experiment with PARD3_3, Q8TEW0, “below the threshold”; in the experiment with DLG4_1, P78352 it was 4.22; with LNX1_2, Q8TBB1, “below the threshold”. Also, the pKd was 4.32 with DLG3_3, Q92796; “below the threshold” with DLG3_1, Q92796; “below the threshold” in the experiment with MAST1, Q9Y2H9; 4.28 in the experiment with DLG3_2, Q92796; “below the threshold” in the experiment with TJP1_2, Q07157; 3.56 in the experiment with SCRIB_2, Q14160.
